Article doi:10.1101/2020.03.02.974154 (bioRxiv, 2020)

Molecular target: the molecule itself
Assay: cryo-EM structure

B1: full-length chicken acid-sensing ion channel 1a (cASIC1a) (natural protein, Gallus gallus, UniProt Q1XA76 1-527, looked up)
chain: MMDLKVDEEEVDSGQPVSIQAFASSSTLHGISHIFSYERLSLKRVVWALCFMGSLALLALVCTNRIQYYFLYPHVTKLDEVAATRLTFPAVTFCNLNEFRFSRVTKNDLYHAGELLALLNNRYEIPDTQTADEKQLEILQDKANFRNFKPKPFNMLEFYDRAGHDIREMLLSCFFRGEQCSPEDFKVVFTRYGKCYTFNAGQDGKPRLITMKGGTGNGLEIMLDIQQDEYLPVWGETDETSFEAGIKVQIHSQDEPPLIDQLGFGVAPGFQTFVSCQEQRLIYLPPPWGDCKATTGDSEFYDTYSITACRIDCETRYLVENCNCRMVHMPGDAPYCTPEQYKECADPALDFLVEKDNEYCVCEMPCNVTRYGKELSMVKIPSKASAKYLAKKYNKSEQYIGENILVLDIFFEALNYETIEQKKAYEVAGLLGDIGGQMGLFIGASILTVLELFDYAYEVIKHRLCRRGKCRKNHKRNNTDKGVALSMDDVKRHNPCESLRGHPAGMTYAANILPHHPARGTFEDFTC
  stoichiometry N: 3
